Measurements: article PMC3228521 (Molecular bioSystems, 2011)
Numbering of substitutions follows the chain as printed. In names and notes the source's numbering stands. Read-outs that look alike come from different tables or passages of the source.

T1: C-term scPolη (a.a. 515~632) HH568,572AA, GST fusion (S. cerevisiae, UniProt Q04049 515-632, HH568,572AA | HH568,572AA)
T1 sequence (looked up): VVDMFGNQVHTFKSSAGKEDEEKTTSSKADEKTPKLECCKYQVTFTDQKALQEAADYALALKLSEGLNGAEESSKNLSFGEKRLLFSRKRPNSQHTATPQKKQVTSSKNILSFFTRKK

T2: C-term scPolη (a.a. 515~632) CC552,553AA, GST fusion (S. cerevisiae, UniProt Q04049 515-632, CC552,553AA | CC552,553AA)
T2 sequence (looked up): T1 sequence (looked up) with C38A, C39A, A54H, A58H

T3: UBZ-CN (a.a. 515~615) of S. cerevisiae Polη, GST fusion (S. cerevisiae, UniProt Q04049 515-615)
T3 sequence (looked up): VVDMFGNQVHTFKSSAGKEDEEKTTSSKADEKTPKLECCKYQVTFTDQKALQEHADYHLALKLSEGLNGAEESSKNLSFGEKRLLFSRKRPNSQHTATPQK

B1: ubiquitin (S. cerevisiae) (natural protein)
chain: not shown
B2: minimal S. cerevisiae Polη UBZ domain (a.a. 545–580) with N-terminal GST tag, wild type (domain or fragment, UniProt Q04049 545-580, looked up)
chain: EKTPKLECCKYQVTFTDQKALQEHADYHLALKLSEG
B3: scPolη UBZ domain (a.a. 545–580) A569P, GST fusion (domain or fragment, S. cerevisiae, UniProt Q04049 545-580, looked up)
chain: B2 chain with A25P
B4: scPolη UBZ domain (a.a. 545–580) A574F, GST fusion (domain or fragment, S. cerevisiae, UniProt Q04049 545-580, looked up)
chain: B2 chain with A30F
B5: scPolη UBZ domain (a.a. 545–580) A574P, GST fusion (domain or fragment, S. cerevisiae, UniProt Q04049 545-580, looked up)
chain: B2 chain with A30P
B6: scPolη UBZ domain (a.a. 545–580) CC552,553AA, GST fusion (domain or fragment, S. cerevisiae, UniProt Q04049 545-580, looked up)
chain: B2 chain with C8A, C9A
B7: scPolη UBZ domain (a.a. 545–580) D570A, GST fusion (domain or fragment, S. cerevisiae, UniProt Q04049 545-580, looked up)
chain: B2 chain with D26A
B8: scPolη UBZ domain (a.a. 545–580) HH568,572AA, GST fusion (domain or fragment, S. cerevisiae, UniProt Q04049 545-580, looked up)
chain: B2 chain with H24A, H28A
B9: scPolη UBZ domain (a.a. 545–580) Q566P, GST fusion (domain or fragment, S. cerevisiae, UniProt Q04049 545-580, looked up)
chain: B2 chain with Q22P
B10: UBZ-N (a.a. 515~580) of S. cerevisiae Polη, GST fusion (domain or fragment, UniProt Q04049 515-580, looked up)
chain: VVDMFGNQVHTFKSSAGKEDEEKTTSSKADEKTPKLECCKYQVTFTDQKALQEHADYHLALKLSEG
B11: UBZ-C (a.a. 545~608) of S. cerevisiae Polη, GST fusion (domain or fragment, UniProt Q04049 545-608, looked up)
chain: EKTPKLECCKYQVTFTDQKALQEHADYHLALKLSEGLNGAEESSKNLSFGEKRLLFSRKRPNSQ

Assays:
Experiment in all cases: SPR
[1] = molecular target: T1, C-term scPolη (a.a. 515~632) …
[2] = molecular target: T2, C-term scPolη (a.a. 515~632) …
[3] = molecular target: T3, UBZ-CN (a.a. 515~615) of S. cerevisiae …
[4] = molecular target: B1
[5] = molecular target: B1; remark: listed apart in the source

Row | Binder | Kd [4] [µM] | other results
1 | B1 |  | Kd [1]: 0.59 ± 0.14 µM; Kd [2]: 0.3 ± 0.1 µM; Kd [3]: 11.1 ± 1.8 µM
2 | B2 | 14.6 ± 2.5 | 
3 | B3 | 43.1 ± 10.2 | 
4 | B4 | 38.6 ± 8.6 | 
5 | B5 | 55.3 ± 5.5 | 
6 | B6 | 22.3 ± 4.1 | 
7 | B7 | 23.6 ± 2.4 | 
8 | B8 | 22.2 ± 4.8 | 
9 | B9 | 48.4 ± 7.2 | 
10 | B10 |  | Kd [5]: 18.2 ± 2.2 µM
11 | B11 |  | Kd [5]: 15.8 ± 3.7 µM
